According to the supplement of paper PMC9112550, “Optimization of the antimicrobial peptide Bac7 by deep mutational scanning” (BMC Biology, 2022):

Test system: Escherichia coli TOP10
Test: shrunken log2 fold change of peptide-encoding DNA abundance (4.5 h post-induction vs induction); higher = less antimicrobial activity (less host growth inhibition)
Settings: time post-induction: 4.5 h; library: site-saturation at positions 5, 18, 19, 20
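Note: peptides expressed intracellularly from a pBAD plasmid library in pooled LB shake-flask culture, induced with 0.3% L-arabinose, DNA abundance read by NGS, three biological replicates, DESeq2 with apeglm shrinkage.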

Row | Sequence | shrunken log2 fold change
1 | RRIRMRPPRLPRPRPRPFIVPRP | -0.414
2 | RRIRNRPPRLPRPRPRPYLMPRP | -0.287
3 | RRIRDRPPRLPRPRPRPTYCPRP | -0.27
4 | RRIRCRPPRLPRPRPRPWPYPRP | -0.115
5 | RRIRARPPRLPRPRPRPFWEPRP | 0.269
6 | RRIRWRPPRLPRPRPRPMTTPRP | 0.1
7 | RRIRTRPPRLPRPRPRPIGNPRP | -0.0759
8 | RRIRKRPPRLPRPRPRPTEAPRP | 0.77
9 | RRIRLRPPRLPRPRPRPIMPPRP | -0.459
10 | RRIRMRPPRLPRPRPRPWWTPRP | 0.0804
11 | RRIRSRPPRLPRPRPRPRQDPRP | 0.127
12 | RRIRPRPPRLPRPRPRPIPFPRP | -0.0358
13 | RRIRHRPPRLPRPRPRPQHNPRP | 0.22
14 | RRIRKRPPRLPRPRPRPMIEPRP | 0.0881
15 | RRIRHRPPRLPRPRPRPESEPRP | -0.00193
16 | RRIRERPPRLPRPRPRPPTQPRP | 0.159
17 | RRIRWRPPRLPRPRPRPYMTPRP | -0.877
18 | RRIRYRPPRLPRPRPRPTNFPRP | -0.16
19 | RRIRRRPPRLPRPRPRPEVGPRP | 0.946
20 | RRIRDRPPRLPRPRPRPYFSPRP | -0.345
21 | RRIRRRPPRLPRPRPRPHLRPRP | 0.298
22 | RRIRMRPPRLPRPRPRPGTDPRP | 1.19
23 | RRIRNRPPRLPRPRPRPFSDPRP | -0.246
24 | RRIRLRPPRLPRPRPRPMVMPRP | -0.0937
25 | RRIRFRPPRLPRPRPRPGFDPRP | 0.0857

Row | Sequence | shrunken log2 fold change
26 | RRIRMRPPRLPRPRPRPCTGPRP | -0.0444
27 | RRIRTRPPRLPRPRPRPAPYPRP | 0.151
28 | RRIRWRPPRLPRPRPRPLSEPRP | 0.104
29 | RRIRPRPPRLPRPRPRPRVYPRP | -0.311
30 | RRIRKRPPRLPRPRPRPFVNPRP | -0.122
31 | RRIRMRPPRLPRPRPRPGAMPRP | 0.609
32 | RRIRSRPPRLPRPRPRPTRGPRP | 0.581
33 | RRIRDRPPRLPRPRPRPSPEPRP | 0.778
34 | RRIRLRPPRLPRPRPRPERAPRP | 0.705
35 | RRIRVRPPRLPRPRPRPGNSPRP | 0.0126
36 | RRIRCRPPRLPRPRPRPQIHPRP | -0.548
37 | RRIRERPPRLPRPRPRPHILPRP | -0.245
38 | RRIRARPPRLPRPRPRPMWVPRP | -0.0205
39 | RRIRGRPPRLPRPRPRPESAPRP | 1.67
40 | RRIRFRPPRLPRPRPRPRAVPRP | 0.475
41 | RRIRCRPPRLPRPRPRPETIPRP | -0.0356
42 | RRIRSRPPRLPRPRPRPHADPRP | 0.121
43 | RRIRERPPRLPRPRPRPAPQPRP | 0.31
44 | RRIRARPPRLPRPRPRPWTKPRP | 0.167
45 | RRIRGRPPRLPRPRPRPACGPRP | 0.967
46 | RRIRVRPPRLPRPRPRPWCMPRP | -0.468
47 | RRIRVRPPRLPRPRPRPAYLPRP | 0.0246
48 | RRIRPRPPRLPRPRPRPASKPRP | 0.022
49 | RRIRGRPPRLPRPRPRPRYSPRP | -0.173
50 | RRIRGRPPRLPRPRPRPQQKPRP | 0.206
